Data set [1] addresses recombinant human eosinophil cationic protein (rhECP), baculovirus-derived, C-terminal FLAG (human) (UniProt P12724). Kind of data set: cell-based or functional assay.
In data set [2] the target is T1, placental ribonuclease inhibitor (RI), P13489.
T1 chain: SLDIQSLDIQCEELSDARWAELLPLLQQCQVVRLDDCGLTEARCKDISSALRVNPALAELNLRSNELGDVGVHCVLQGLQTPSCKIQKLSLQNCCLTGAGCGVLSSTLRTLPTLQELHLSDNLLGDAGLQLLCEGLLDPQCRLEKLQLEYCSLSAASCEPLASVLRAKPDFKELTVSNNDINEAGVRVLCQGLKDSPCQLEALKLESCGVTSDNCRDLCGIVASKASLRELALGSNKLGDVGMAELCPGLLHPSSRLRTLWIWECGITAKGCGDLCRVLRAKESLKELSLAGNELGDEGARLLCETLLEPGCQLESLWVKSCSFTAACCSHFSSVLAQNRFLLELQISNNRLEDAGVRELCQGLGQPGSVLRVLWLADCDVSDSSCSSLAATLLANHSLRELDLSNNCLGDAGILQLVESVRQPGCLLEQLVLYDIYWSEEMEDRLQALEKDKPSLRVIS

Data on two molecules can be found in patent US6426070.

Consider “placental ribonuclease inhibitor (RI) (from UniProt P13489 2-461)”, for which the infectious units/ml RSV-B after 500 nM rhECP + 400U RI (500 nM rhECP alone: 660 +/- 28) (infectious units/ml) in data set [1] worked out at 1690.

B1: recombinant human eosinophil cationic protein (rhECP), baculovirus-derived, C-terminal FLAG (protein)
chain: RPPQFTRAQWFAIQHISLNPPRCTIAMRAINNYRWRCKNQNTFLRTTFANVVNVCGNQSIRCPHNRTLNNCHRSRFRVPLLHCDLINPGAQNISNCTYADRPGRRFYVVACDNRDPRDSPRYPVVPVHLDTTIDYKDDDDK
As for B1, the “ribonuclease activity (pmol/min) at fixed enzyme (rhECP) and substrate (tRNA) concentrations with increasing concentrations of RI” value in data set [2] was “These results demonstrate that rhECP is sensitive to the inhibitory effects of RI”.
